Source: PMC2756588

T1: Cdc25, P04821
T1 sequence (P04821 50-136, looked up): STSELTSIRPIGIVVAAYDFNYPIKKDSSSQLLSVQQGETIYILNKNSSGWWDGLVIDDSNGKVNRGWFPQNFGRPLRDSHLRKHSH

T2: Bud14, P27637
T2 sequence (P27637 247-328, looked up): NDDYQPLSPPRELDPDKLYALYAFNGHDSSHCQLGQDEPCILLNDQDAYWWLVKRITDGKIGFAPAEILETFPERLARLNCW

T3: Lsb3, P43603
T3 sequence (P43603 385-451, looked up): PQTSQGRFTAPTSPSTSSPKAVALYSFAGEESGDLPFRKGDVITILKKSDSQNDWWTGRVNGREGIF

T4: Cyk3, Q07533
T4 sequence (Q07533 1-83, looked up): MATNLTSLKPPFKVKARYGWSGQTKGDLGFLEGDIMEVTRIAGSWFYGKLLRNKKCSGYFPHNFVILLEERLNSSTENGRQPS

T5: Bzz1-1, P38822
T5 sequence (P38822 478-572, looked up): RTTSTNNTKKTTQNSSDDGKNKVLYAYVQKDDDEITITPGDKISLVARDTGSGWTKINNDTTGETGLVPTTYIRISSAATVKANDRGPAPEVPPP

T6: Pin3, Q06449
T6 sequence (Q06449 53-122, looked up): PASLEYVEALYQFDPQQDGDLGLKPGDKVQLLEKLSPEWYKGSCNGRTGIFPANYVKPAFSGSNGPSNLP

T7: Hse1, P38753
T7 sequence (P38753 208-285, looked up): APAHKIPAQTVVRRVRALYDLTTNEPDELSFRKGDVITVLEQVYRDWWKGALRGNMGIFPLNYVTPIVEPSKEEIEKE

T8: Fus1, P11710
T8 sequence (P11710 432-512, looked up): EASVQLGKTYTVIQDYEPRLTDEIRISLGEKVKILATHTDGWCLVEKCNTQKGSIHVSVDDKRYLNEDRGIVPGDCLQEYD

T9: Abp1, P15891
T9 sequence (P15891 535-592, looked up): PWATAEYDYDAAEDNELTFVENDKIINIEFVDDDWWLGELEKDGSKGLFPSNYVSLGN

T10: Bbc1, P47068
T10 sequence (P47068 1-78, looked up): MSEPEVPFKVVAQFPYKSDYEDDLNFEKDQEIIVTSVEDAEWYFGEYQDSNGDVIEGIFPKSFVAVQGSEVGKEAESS

T11: Lsb1, P53281
T11 sequence (P53281 45-122, looked up): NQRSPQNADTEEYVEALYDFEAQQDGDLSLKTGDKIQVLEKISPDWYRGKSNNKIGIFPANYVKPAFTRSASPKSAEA

T12: Sla1-3, P32790
T12 sequence (P32790 344-424, looked up): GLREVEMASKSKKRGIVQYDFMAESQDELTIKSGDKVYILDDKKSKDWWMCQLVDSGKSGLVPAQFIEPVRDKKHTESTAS

T13: Bzz1-2, P38822
T13 sequence (P38822 568-633, looked up): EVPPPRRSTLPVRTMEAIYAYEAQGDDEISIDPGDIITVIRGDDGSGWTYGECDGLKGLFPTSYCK

T14: Nbp2, Q12163
T14 sequence (Q12163 103-180, looked up): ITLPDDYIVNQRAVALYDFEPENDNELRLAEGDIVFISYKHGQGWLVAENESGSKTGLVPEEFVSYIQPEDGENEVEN

T15: Boi1, P38041
T15 sequence (P38041 1-86, looked up): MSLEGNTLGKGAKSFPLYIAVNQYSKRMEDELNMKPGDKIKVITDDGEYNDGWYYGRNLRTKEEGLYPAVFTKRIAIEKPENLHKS

T16: Lsb4, P32793
T16 sequence (P32793 402-468, looked up): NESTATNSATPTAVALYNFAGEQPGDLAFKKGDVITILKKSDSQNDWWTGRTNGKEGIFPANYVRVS

T17: Pex13, P80667
T17 sequence (P80667 295-386, looked up): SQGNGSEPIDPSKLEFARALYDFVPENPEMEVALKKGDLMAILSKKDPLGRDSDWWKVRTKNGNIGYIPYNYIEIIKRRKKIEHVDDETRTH

T18: Hof1, Q05080
T18 sequence (Q05080 590-669, looked up): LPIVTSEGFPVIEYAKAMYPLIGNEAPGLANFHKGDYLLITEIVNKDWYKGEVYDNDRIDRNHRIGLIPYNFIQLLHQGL

T19: Boi2, P39969
T19 sequence (P39969 32-116, looked up): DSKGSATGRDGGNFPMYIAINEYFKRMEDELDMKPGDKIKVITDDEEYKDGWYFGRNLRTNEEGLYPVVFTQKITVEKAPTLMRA

T20: Sla1-2, P32790
T20 sequence (P32790 60-140, looked up): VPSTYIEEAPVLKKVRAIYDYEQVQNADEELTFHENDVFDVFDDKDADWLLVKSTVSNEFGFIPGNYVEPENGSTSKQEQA

T21: Myo5, Q04439
T21 sequence (Q04439 1072-1160, looked up): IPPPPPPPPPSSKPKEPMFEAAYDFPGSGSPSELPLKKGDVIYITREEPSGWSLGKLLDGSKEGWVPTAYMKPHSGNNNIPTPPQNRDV

B1: unnamed (peptide)
chain: PPPPPPPPPPLPQSL
B2: unnamed (peptide)
chain: IPSRPAPKPPSSASA
B3: unnamed (peptide)
chain: PPPPPPPPPPPLPQS

What follows are binders tested against Sho1, P40073 (assay: SPOT array). Conditions: median of control spots 1148.
Chain of Sho1, P40073 (P40073 287-367): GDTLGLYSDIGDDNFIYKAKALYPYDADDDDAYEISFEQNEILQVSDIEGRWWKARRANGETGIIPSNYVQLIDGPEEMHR

SPOT intensity	Binder
0	B1
0	B2
0	B3

These binders were tested against T1, Cdc25, P04821 (assay: SPOT array). Conditions: median of control spots 969.

SPOT intensity	Binder
0	B1
0	B2
0	B3

What follows are binders tested against T2, Bud14, P27637 (assay: SPOT array). Conditions: median of control spots 956.

SPOT intensity	Binder
0	B1
0	B2
0	B3

What follows are binders tested against T3, Lsb3, P43603 (assay: SPOT array). Conditions: median of control spots 406.

SPOT intensity	Binder
0	B1
10	B2
0	B3

What follows are binders tested against T4, Cyk3, Q07533 (assay: SPOT array). Conditions: median of control spots 1451.

SPOT intensity	Binder
1	B1
3	B2
0	B3

What follows are binders tested against Myo3, P36006 (assay: SPOT array). Conditions: median of control spots 468.

SPOT intensity	Binder
275	B1
575	B2
557	B3

These binders were tested against T5, Bzz1-1, P38822 (assay: SPOT array). Conditions: median of control spots 4446.

SPOT intensity	Binder
5	B1
6	B2
2	B3

What follows are binders tested against T6, Pin3, Q06449 (assay: SPOT array). Conditions: median of control spots 2171.

SPOT intensity	Binder
0	B1
7	B2
0	B3

What follows are binders tested against Bem1-1, P29366 (assay: SPOT array). Conditions: median of control spots 4282.
Chain of Bem1-1, P29366 (P29366 55-141): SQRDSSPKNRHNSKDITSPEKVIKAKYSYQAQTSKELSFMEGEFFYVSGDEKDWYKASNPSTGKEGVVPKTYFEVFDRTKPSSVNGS

SPOT intensity	Binder
0	B1
2	B2
0	B3

These binders were tested against T7, Hse1, P38753 (assay: SPOT array). Conditions: median of control spots 1727.

SPOT intensity	Binder
0	B1
1	B2
0	B3

These binders were tested against T8, Fus1, P11710 (assay: SPOT array). Conditions: median of control spots 1200.

SPOT intensity	Binder
0	B1
1	B2
2	B3

These binders were tested against T9, Abp1, P15891 (assay: SPOT array). Conditions: median of control spots 935.

SPOT intensity	Binder
0	B1
54	B2
0	B3

These binders were tested against T10, Bbc1, P47068 (assay: SPOT array). Conditions: median of control spots 796.

SPOT intensity	Binder
0	B1
121	B2
0	B3

These binders were tested against T11, Lsb1, P53281 (assay: SPOT array). Conditions: median of control spots 388.

SPOT intensity	Binder
0	B1
493	B2
0	B3

Each binder was assayed against T12, Sla1-3, P32790 (assay: SPOT array). Conditions: median of control spots 5475.

SPOT intensity	Binder
6	B1
29	B2
0	B3

These binders were tested against T13, Bzz1-2, P38822 (assay: SPOT array). Conditions: median of control spots 4538.

SPOT intensity	Binder
2	B1
0	B2
5	B3

The binders below were run against GST (assay: SPOT array). Conditions: median of control spots 978.

SPOT intensity	Binder
1	B1
0	B2
0	B3

What follows are binders tested against T14, Nbp2, Q12163 (assay: SPOT array). Conditions: median of control spots 357.

SPOT intensity	Binder
0	B1
1230	B2
0	B3

The binders below were run against T15, Boi1, P38041 (assay: SPOT array). Conditions: median of control spots 1162.

SPOT intensity	Binder
0	B1
0	B2
0	B3

These binders were tested against T16, Lsb4, P32793 (assay: SPOT array). Conditions: median of control spots 397.

SPOT intensity	Binder
0	B1
21	B2
0	B3

The binders below were run against T17, Pex13, P80667 (assay: SPOT array). Conditions: median of control spots 1341.

SPOT intensity	Binder
28	B1
873	B2
3	B3

What follows are binders tested against T18, Hof1, Q05080 (assay: SPOT array). Conditions: median of control spots 4086.

SPOT intensity	Binder
5	B1
0	B2
1	B3

These binders were tested against Rvs167, P39743 (assay: SPOT array). Conditions: median of control spots 2707.
Chain of Rvs167, P39743 (P39743 419-482): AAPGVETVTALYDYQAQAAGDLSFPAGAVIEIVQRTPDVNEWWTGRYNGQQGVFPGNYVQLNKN

SPOT intensity	Binder
0	B1
1	B2
0	B3

What follows are binders tested against Bem1-2, P29366 (assay: SPOT array). Conditions: median of control spots 4347.
Chain of Bem1-2, P29366 (P29366 139-227): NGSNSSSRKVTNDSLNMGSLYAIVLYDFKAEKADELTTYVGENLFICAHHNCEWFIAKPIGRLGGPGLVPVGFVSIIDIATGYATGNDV

SPOT intensity	Binder
1	B1
2680	B2
0	B3

The binders below were run against T19, Boi2, P39969 (assay: SPOT array). Conditions: median of control spots 1161.

SPOT intensity	Binder
0	B1
0	B2
0	B3

These binders were tested against T20, Sla1-2, P32790 (assay: SPOT array). Conditions: median of control spots 712.

SPOT intensity	Binder
0	B1
0	B2
0	B3

These binders were tested against T21, Myo5, Q04439 (assay: SPOT array). Conditions: median of control spots 471.

SPOT intensity	Binder
263	B1
447	B2
489	B3
